From patent US20080112961A1 (MacroGenics, published 2008) come the findings set out here.

Experiment [1] concerns the target T1, soluble monomeric FcγRIIIA, the extracellular region of FcγRIIIA joined to the linker-AVITAG sequence (UniProt P08637 17-208).
T1 construct: extracellular domain; also called FcRIIIA
Nature of the experiment: BIAcore, Ab on BSA-FITC.

The target of experiment [2] is T2, FcγRIIB-Fc fusion protein, soluble dimer: extracellular domain of FcγRIIB fused to the hinge-CH2-CH3 domain … (human, UniProt P31994 43-217, limits assumed).
T2 construct: extracellular domain; also called FcRIIB-Fc; 2bfcagl; not shown: human IgG2 hinge-CH2-CH3
T2 sequence (looked up): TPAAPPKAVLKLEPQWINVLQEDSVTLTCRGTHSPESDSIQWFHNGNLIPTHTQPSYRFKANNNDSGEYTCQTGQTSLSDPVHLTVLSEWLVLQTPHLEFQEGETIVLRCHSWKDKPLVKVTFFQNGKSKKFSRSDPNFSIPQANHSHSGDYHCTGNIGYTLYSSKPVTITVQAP
Nature of the experiment: ELISA.

Experiment [3] deals with T2, FcγRIIB-Fc fusion protein, soluble …. Nature of the experiment: BIAcore, Ab on BSA-FITC. As to the method: (§1) Following this, the unreacted active esters were “capped off” with an injection of 1M Et-NH2. Once a suitable surface was prepared, ch 4-4-20 antibodies carrying the Fc mutations were passed over the surface by one minute injections of a 20 μg/mL solution at a […] flow rate. […] Next, dilution series of the receptor (FcγRIIIA and FcγRIIB-Fc fusion protein) in HBS-P buffer (10 mM HEPES, 150 mM NaCl, 0.005% Surfactant P20, 3 mM EDTA, pH 7.4) were injected onto the surface at 100 μL/min Antibody regeneration between different receptor dilutions was carried out by single 5 second injections of 100 mM NaHCO₃ pH 9.4; 3M NaCl.
(§2) Binding curves for two different concentrations (200 nM and 800 nM for FcγRIIIA and 200 nM and 400 nM for FcγRIIB fusion protein) were aligned and responses adjusted to the same level of captured antibodies, and the reference curves were subtracted from the experimental curves. Association and dissociation phases were fitted separately. Dissociation rate constant was obtained for interval 32-34 sec of the dissociation phase; association phase fit was obtained by a 1:1 Langmuir model and base fit was selected on the basis Rₘₐₓ and chi² criteria.

Experiment [4] shares this target. Nature of the experiment: BIAcore, ch4-4-20. As to the method: as §1, §2
(§3) Secondary Screen of Mutants via BIAcore: Mutants that were selected in the above screens were then analyzed by BIAcore to determine the kinetic parameters for binding FcγRIIIA (158V) and FcγRIIB. The method used was similar to that disclosed in Section 7.1, supra.

Experiment [5] concerns the target T3, FcγRIIB (form not stated) (UniProt P31994 43-217, limits assumed).
T3 construct: also called FcγRIIB (ELISA)
T3 sequence (looked up): T2 sequence (looked up)
Nature of the experiment: ELISA.

Experiment [6] addresses T4, FcγRIIIA (form not stated) (UniProt P08637 17-208, limits assumed).
T4 construct: also called FcγRIIIA (ELISA)
Description: ELISA.

Experiment [7] addresses T3, FcγRIIB (form not stated). Nature of the experiment: ELISA. This is another data set of the same source.
Experiment [8] has as its target T4, FcγRIIIA (form not stated). Nature of the experiment: ELISA. The source holds these as a separate data set.
For experiment [9], the target named is T5, FcγRIIIA 158V, soluble monomer (extracellular region joined to linker-AVITAG) (UniProt P08637 17-208, limits assumed).
T5 construct: extracellular domain; also called 3aV158; 3A 158V
T5 sequence (P08637 17-208 F176V limits assumed): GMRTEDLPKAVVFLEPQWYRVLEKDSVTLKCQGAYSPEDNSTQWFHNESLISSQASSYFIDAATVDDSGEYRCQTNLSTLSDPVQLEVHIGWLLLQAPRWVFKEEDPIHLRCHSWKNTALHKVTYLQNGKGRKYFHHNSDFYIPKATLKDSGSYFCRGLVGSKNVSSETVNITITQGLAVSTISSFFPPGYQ
Nature of the experiment: BIAcore, ch4-4-20. As to the method: as §1, §2, §3

Positions count from the first letter of the chain named. Names may count otherwise.

T4 sequence (P08637 17-208 F176V limits assumed, form in doubt): as the sequence (P08637 17-208 F176V limits assumed) above

B1: ch4-4-20 Mut23 (antibody)
chain 1: not shown
chain 2: DVVMTQTPLSLPVSLGDQASISCRSSQSLVHSNGNTYLRWYLQKPGQSPKVLIYKVSNRFSGVPDRFSGSGSGTDFTLKISRVEAEDLGVYFCSQSTHVPWTFGGGTKLEIKRTVAAPSVFIFPPSDEQLKSGTASVVCLLNNFYPREAKVQWKVDNALQSGNSQESVTEQDSKDSTYSLSSTLTLSKADYEKHKVYACEVTHQGLSSPVTKSFNRGEC
Take B1: in [1], the Kd came to 70.2 nM, the koff is 0.105 s⁻¹ and the on-rate constant (kon) was found to be 1.43e+06 M⁻¹ s⁻¹. Further, in [2], the “ELISA, OD” value came out at 0.1 OD. Besides, in experiment [3], the dissociation constant Kd turned out to be 108 nM and the koff is 0.107 s⁻¹.

B2: ch4-4-20 MgFc66 (A330V, V427M) (antibody)
chain 1: not shown
chain 2: B1 chain 2
Regarding B2, the “Koff WT/Mut” value in experiment [4] turned out to be 0.62 ratio.

B3: ch4-4-20 G316D, A378V, D399E (antibody)
heavy: ASTKGPSVFPLAPSSKSTSGGTAALGCLVKDYFPEPVTVSWNSGALTSGVHTFPAVLQSSGLYSLSSVVTVPSSSLGTQTYICNVNHKPSNTKVDKKVEPKSCDKTHTCPPCPAPELLGGPSVFLFPPKPKDTLMISRTPEVTCVVVDVSHEDPEVKFNWYVDGVEVHNAKTKPREEQYNSTYRVVSVLTVLHQDWLNDKEYKCKVSNKALPAPIEKTISKAKGQPREPQVYTLPPSRDELTKNQVSLTCLVKGFYPSDIVVEWESNGQPENNYKTTPPVLESDGSFFLYSKLTVDKSRWQQGNVFSCSVMHEALHNHYTQKSLSLSPGK
For the molecule B3, the “ELISA binding, fold vs Wt” value was 14 X in [5] and 1.5 X in experiment [6]. Moreover, the entries for the “fold increase vs WT” value in experiment [7] and in experiment [8] were 14 x and 1.5 x, respectively.

B4: ch4-4-20 V348M, K334N, F275I, Y202M, K147T (antibody)
chain: B3 heavy with K30T, V85M, F158I, D199G, K217N, V231M, V261A, E282D
Turning to B4, the “fold increase vs WT” value in [7] stood at 0.75 x; in experiment [8] it was 0.5 x.

B5: ch4-4-20 MgFc39 (E293V, Q295E, A327T) (antibody)
heavy: B3 heavy with E176V, Q178E, D199G, A210T, V261A, E282D
As for B5, the “Koff WT/Mut” value in experiment [4] is 1.3 ratio; in experiment [9] it was 0.86 ratio. Moreover, in experiment [6], the “ELISA binding, fold vs Wt” value is 1.4 X. Besides, the “fold increase vs WT” value in [8] was determined as 0.4 x.

B6: ch4-4-20 V397M, T411A, S415N (antibody)
heavy: B3 heavy with D199G, V261A, V280M, E282D, T294A, S298N
As for B6, the “fold increase vs WT” value was 5 x in experiment [7] and 0.25 x in experiment [8].

B7: ch4-4-20 Mut 10 (P396L, A330S, K288N) (antibody)
heavy: B3 heavy with K171N, D199G, A213S, V261A, P279L, E282D
notes: also called Mut10(0225); K288N, A330S, P396L
In the case of B7, the “ELISA, OD” value in experiment [2] stood at 1.2 OD. In experiment [3], this molecule displayed a Kd of 41.3 nM and an off-rate constant (koff) of 0.05 s⁻¹.

B8: ch4-4-20 K334E, T359N, T366S (antibody)
heavy: B3 heavy with D199G, K217E, T242N, T249S, V261A, E282D
With B8, the “ELISA binding, fold vs Wt” value in experiment [6] turned out to be 1.5 X. In experiment [7], the binding result is on record as “binds”. For the same molecule, the “fold increase vs WT” value in experiment [8] turned out to be 1.5 x.

B9: ch4-4-20 MgFc63 (S298N, K360R, N361D) (antibody)
heavy: B3 heavy with S181N, D199G, K243R, N244D, V261A, E282D
For B9, the “Koff WT/Mut” value in experiment [4] worked out at 0.67 ratio.

B10: ch4-4-20 MgFc43 (Y319F, P352L, P396L) (antibody)
heavy: B3 heavy with D199G, Y202F, P235L, V261A, P279L, E282D
Take B10: the “Koff WT/Mut” value came to 2.29 ratio in [4] and 1.23 ratio in experiment [9].

B11: ch4-4-20 V282E, V369I, L406F (antibody)
heavy: B3 heavy with V165E, D199G, V252I, V261A, E282D, L289F
On to B11, for which the “fold increase vs WT” value turned out to be 7 x in experiment [7] and 0.5 x in experiment [8].
